This assay has as its system AlgW and mutants. In words: Apparent activation parameters of AlgW and mutants (peptide agonist gradient). In kind it is biochemical, Pseudomonas aeruginosa. To be noted: peptide activator (decapeptide) gradient, substrate Abz-VLAG-pNA, Michaelis-Menten fit, means of three independent determinations; for Maximal cleavage activity: Tris pH 7.5, 150 mM NaCl, 37°C; for EC50: read-out: Half-maximal activation concn. The text has this:
For the enzyme mechanism of AlgW (30–389) and mutants, two internally quenched fluorescent peptide substrates incorporating the peptidase cleavage site of MucA/MucB, Abz-VLAG-pNA and Abz-TVAW-pNA, were designed and synthesized (GL Biochem Shanghai Ltd., China). In the intact peptide, the fluorescence of the anthraniloyl group is quenched by the P-nitroaniline (Abz is a fluorogenic group, and pNA is a quencher of fluorescence). This quenched fluorescence is liberated upon cleavage of peptide by 200 nM AlgW and mutants (200/3 nM for trimer), resulting in increased fluorescence that can then be monitored fluorometrically. Prior to the assay, all enzyme preparations were incubated with 10 mM agonist peptides (WVF or SVRDELRWVF) for 30 min at room temperature. All assays were placed in a buffer containing 25 mM Tris (pH 7.5) and 150 mM NaCl at 37°C for 1 h, and the final assay volume was 100 μl. The fluorescent degradation products were monitored at 60-s intervals at fluorescence wavelength—λex = 310 nm, λem = 420 nm ([41]). All data points were representative of three independent determinations and were simulated with solid lines with the formula Y = Vmax · X^h/(Km ^h + X^h) or Y = Vmax · X^h/(Khalf^h + X^h) or the Michaelis-Menten formula (Y = Vmax · X/[Km + X]). Substrate versus velocity was used to determine Km and Vmax, and agonists versus velocity was used to determine the half-maximal activation concentration and maximum activation rate of agonists. The fitting and calculation of data were carried out using Prism 7 (GraphPad, CA, USA).

B1: AlgW-R374A (protein)
chain: VGLPRQEVHVEQAPLLSRLQEGPVSYANAVSRAAPAVANLYTTKMVSKPSHPLFDDPMFRRFFGDNLPQQKRMESSLGSAVIMSAEGYLLTNNHVTAGADQIIVALRDGRETIAQLVGSDPETDLAVLKIDLKNLPAMTLGRSDGIRTGDVCLAIGNPFGVGQTVTMGIISATGRNQLGLNTYEDFIQTDAAINPGNSGGALVDAAGNLIGINTAIFSKSGGSQGIGFAIPTKLALEVMQSIIEHGQVIRGWLGVEVKALTPELAESLGLGETAGIVVAGVYRDGPAARGGLLPGDVILTIDKQEASDGRRSMNQVARTRPGQKISIVVLRNGQKVNLTAEVGLAPPPAPAPQQKQDGGE
modifications: left off: His6, C-terminal, state not stated
As to B1, the Maximal cleavage activity is 5.45 ± 0.68 µM/min.

B2: AlgW-E266A (protein)
chain: VGLPRQEVHVEQAPLLSRLQEGPVSYANAVSRAAPAVANLYTTKMVSKPSHPLFDDPMFRRFFGDNLPQQKRMESSLGSAVIMSAEGYLLTNNHVTAGADQIIVALRDGRETIAQLVGSDPETDLAVLKIDLKNLPAMTLGRSDGIRTGDVCLAIGNPFGVGQTVTMGIISATGRNQLGLNTYEDFIQTDAAINPGNSGGALVDAAGNLIGINTAIFSKSGGSQGIGFAIPTKLALAVMQSIIEHGQVIRGWLGVEVKALTPELAESLGLGETAGIVVAGVYRDGPAARGGLLPGDVILTIDKQEASDGRRSMNQVARTRPGQKISIVVLRNGQKVNLTAEVGLRPPPAPAPQQKQDGGE
modifications: left off: His6, C-terminal, state not stated
For B2, the EC50 was 1080 ± 500 nM and the Maximal cleavage activity stood at 60.51 ± 5.07 µM/min.

B3: AlgW-E151A (protein)
chain: VGLPRQEVHVEQAPLLSRLQEGPVSYANAVSRAAPAVANLYTTKMVSKPSHPLFDDPMFRRFFGDNLPQQKRMESSLGSAVIMSAEGYLLTNNHVTAGADQIIVALRDGRETIAQLVGSDPATDLAVLKIDLKNLPAMTLGRSDGIRTGDVCLAIGNPFGVGQTVTMGIISATGRNQLGLNTYEDFIQTDAAINPGNSGGALVDAAGNLIGINTAIFSKSGGSQGIGFAIPTKLALEVMQSIIEHGQVIRGWLGVEVKALTPELAESLGLGETAGIVVAGVYRDGPAARGGLLPGDVILTIDKQEASDGRRSMNQVARTRPGQKISIVVLRNGQKVNLTAEVGLRPPPAPAPQQKQDGGE
modifications: left off: His6, C-terminal, state not stated
With B3, the EC50 is 2990 ± 560 nM and the Maximal cleavage activity turned out to be 34.93 ± 1.87 µM/min.

B4: AlgW-D149A (protein)
chain: VGLPRQEVHVEQAPLLSRLQEGPVSYANAVSRAAPAVANLYTTKMVSKPSHPLFDDPMFRRFFGDNLPQQKRMESSLGSAVIMSAEGYLLTNNHVTAGADQIIVALRDGRETIAQLVGSAPETDLAVLKIDLKNLPAMTLGRSDGIRTGDVCLAIGNPFGVGQTVTMGIISATGRNQLGLNTYEDFIQTDAAINPGNSGGALVDAAGNLIGINTAIFSKSGGSQGIGFAIPTKLALEVMQSIIEHGQVIRGWLGVEVKALTPELAESLGLGETAGIVVAGVYRDGPAARGGLLPGDVILTIDKQEASDGRRSMNQVARTRPGQKISIVVLRNGQKVNLTAEVGLRPPPAPAPQQKQDGGE
modifications: left off: His6, C-terminal, state not stated
For B4, the Maximal cleavage activity was determined as 8.16 ± 0.85 µM/min.

B5: AlgW-Y212A (protein)
chain: VGLPRQEVHVEQAPLLSRLQEGPVSYANAVSRAAPAVANLYTTKMVSKPSHPLFDDPMFRRFFGDNLPQQKRMESSLGSAVIMSAEGYLLTNNHVTAGADQIIVALRDGRETIAQLVGSDPETDLAVLKIDLKNLPAMTLGRSDGIRTGDVCLAIGNPFGVGQTVTMGIISATGRNQLGLNTAEDFIQTDAAINPGNSGGALVDAAGNLIGINTAIFSKSGGSQGIGFAIPTKLALEVMQSIIEHGQVIRGWLGVEVKALTPELAESLGLGETAGIVVAGVYRDGPAARGGLLPGDVILTIDKQEASDGRRSMNQVARTRPGQKISIVVLRNGQKVNLTAEVGLRPPPAPAPQQKQDGGE
modifications: left off: His6, C-terminal, state not stated
Take B5: the EC50 was found to be 2120 ± 620 nM and the Maximal cleavage activity turned out to be 39.46 ± 6.17 µM/min.

Source of the values: publication PMC8545111, “Molecular Basis of the Versatile Regulatory Mechanism of HtrA-Type Protease AlgW from Pseudomonas aeruginosa” (mBio, 2021).
